Patent US20220135690A1 (TWIST BIOSCIENCE, published 2022)

Legend:
CXCR4 chemokine receptor [1] = target: CXCR4 chemokine receptor (Pan troglodytes (Chimpanzee), UniProt P61072 1-352); assay: cell-based or functional assay
CXCR4 chemokine receptor [2] = target: T1, CXCR4 chemokine receptor (UniProt P61072 1-352); assay: HTRF ligand competition
T1 chain: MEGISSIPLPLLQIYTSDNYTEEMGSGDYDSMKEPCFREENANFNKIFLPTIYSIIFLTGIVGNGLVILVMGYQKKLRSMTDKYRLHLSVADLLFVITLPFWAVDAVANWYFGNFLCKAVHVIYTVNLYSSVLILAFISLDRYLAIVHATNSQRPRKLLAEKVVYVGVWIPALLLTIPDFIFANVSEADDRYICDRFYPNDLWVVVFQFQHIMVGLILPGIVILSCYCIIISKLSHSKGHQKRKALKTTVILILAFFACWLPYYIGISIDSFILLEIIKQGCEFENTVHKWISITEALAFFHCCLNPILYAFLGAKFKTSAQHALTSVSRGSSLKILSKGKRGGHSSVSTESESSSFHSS

IC50 in cAMP assay (CXCR4 chemokine receptor [1]): 0.9 nM
IC50 (CXCR4 chemokine receptor [2]): 0.687 nM
B1: CXCR4-81-6 (antibody, V domains shown)
VH: EVQLVESGGGLVQAGGSLRLSCAASGRTFSSYAMGWFRQAPGKEREFVAAISWSGGSTYYADSVKGRFTISADNAKNTVYLQMNSLKPEDTAVYYCAAARGYWRWRLGRRYDYWGQGTQVTVSS
VL: DIQMTQSPSSLSASVGDRVTITCRASQSVTTYLNWYQQKPGKAPKLLIYGSSNLQSGVPSRFSGSGSGTDFTLTISSLQPEDFATYYCQQGYSTPWTFGGGTKVEIKR
